The record followed here is paper PMC7979752.

As usually defined, the stoichiometry N is the number of molecules, sites or subunits per partner or assembly.

Assay [1] addresses SmhC (S. marcescens MSU-97).
Assay [2] concerns the target SmhB (S. marcescens MSU-97). The assay is described as follows: crystal structure; SmhB pore form, crystallised in 0.2 M calcium chloride, 40% MPD, 16 °C; space group C2, 6.98 Å.

In assay [1], SmhB (natural protein) came in with a percentage lysis of horse erythrocytes with equimolar SmhB and SmhC, 2 h of 5%. For the same substance, in assay [2], the stoichiometry N was found to be 10.
